Results reported in the DeepSol protein solubility set.

Experiment: soluble on expression in E. coli; label from the status in PepcDB or PDB records

Soluble on expression in E. coli, not soluble:
MGSDKIHHHHHHARDTLFVNLTDATDSQSLKLSDFGNTVRYVPLETNEVCLIGNNPHIALLEDKIVIATKDQCFLFHKQTGKYICSIGHIGDDPSGYSSTNYWIDDAGLFYFFRAPDQLLKYNQKGEMTGKIQIPHIPAAPDFFAFSDSTIIAHCNSSIGLESSNSLLFLNSFGEKLDSIPNLLKSPSIPSPDNISSLSIIKRGAGFFGNLGRRGVMIIKDKEQGELLLPLYNPSLWSSENEVRFRETFTDTIYTIKNRKLYPYMVFHTDTDHSSANPLWYSNPQSIYVAYVLENTHSVFFQYVKNKQVYNGLYNKETQQTKFAKCQQFIVDDLTSEQELKVDLSALCSYKGEYGFILEAASIPDASQKQSDNKNENIPHWMSQLDEDANPVIAIVSDK
MGSDKIHHHHHHARRNILRQTWMSKANSEIVANGRMKPLFLVGLTPGEYKMKKMVMQEAKLYGDIIVVDMNDNYEELTYKSLAILLYGVSKAPRYQMIGKIDEDVMFFPDKLTELYDQGFIDATPLRIYGLKMQSGANIFRDKTHRWYVPESSYSCSKFPEYVSGMLYMVTWEAAQQIIKSTKYRDFIQVEDVFLTGILAEDLGISVKNLP
MGSDKIHHHHHHASCDKFDEINTDPDATTKVTSSLLATGLLLDITSSSASKSFIYDELLAKQMAWGESMEDYQYNVFGRSGFGGYTTLINAQKMVESVSDDNVNAYDGLAHFIKAYKIFYMSMEMGDLPYEEALQGELGLVRPKYNTQKEVMNFILSDLETAYELFSTAKDFDGDPILGGSISKWKKATTAFQLKVLMHLSKKESDADLKVKERFARIVASGSLMESNEDNLQMKYADKANTVYPFHNTNTKHAGYAMLSTMLIDKFKATGDIRMFYYAKPAKAKLNEGVTADSWDAYIGTDPSLPFEQIEKAYATEQYSGFNARYTDYPSGEPVVRLGYAEQNFILAEAAVRGWISGDASAYYKKAIRAHMEFIASNTPDEEVYHHGHPITEEAIAAFLETPAIQLSGEKEEDIEKILTQRYLASFMQHPYDVYYDYRRTGYPVLPINPATNRNTMNDRLPMRWMYPKSESDYNLEHQNEALERQFGGVDDVNKLMWILQ
MGSDKIHHHHHHASGFTLGKDILSYVAVGDSFTEGLDDPYPDSARFPQGRYRGWADRFAEHLARHVREVRYANLAVRGKLLRQILTEQLPRAVELRPDLVTLCAGGNDILRPGSDPDTLADAFEGAVRQLRDTGADVVIFTGFDTGFQPVMRHLRGKIATYNMHLRGIADRYHCRVVDLWSMKIFQDRRAWSDDRLHLSAEGHRRLALRVCEVMGVPVDEDWNAPWPQEPPAPWHQARQEDLRWARQHLVPWIHRRLTGRSSGDGVRPKRPNLEPLVRR
MGSDKIHHHHHHASKIKQVGSTNLEPTTAYIRNYKATGSNAIYNKPGKLSGSKVVASASTAKAQSVLHGYKVAKLSNKSYYMKVVSFDGRYRGYIYVGKKNPVNNFKKVGGGLTYLSTTTSTSLTNNDKKDLSFAKPGTDTQIYKAPKGSQYKVGAAVKDTTDYKGHKLVASKAAMNDMDGQKWLYVSDVTEPTNASGWVLASQLTDYVAPKAPVSVGNDQTTVTKNWQREFYNPATGTKAYSFDNLNLPLLGTSGGSNVNWTTAVKKFNSDATVKGDKKDVVPADTLATAFKNSGLSTVYMKVTPTLLARIPGGLLDKIDSYSGLYMKFDLDMDNIPTTTHYGDQLKLAYKLDNTNLYYKPVISLGGLTNTNADGYAALPVQLNAMNTLWGLLYQ
MGSDKIHHHHHHAVTSCLDTEEIEYSPDATIHAFALDTIHGVNYKFTIDQLGPDGVGLIYNQDSLPVGSDTIIDRILIKTLTTTSGIITAKNAEGQDTLFNYSDSIDFRGTMQKPMRIKVWAADMQYTKEYTISVRVHQQDPDSMNWTKMTDNFANYSGYQKSVTLNEDLLIYTSNTTAYQSSGDVISKGRSWTPVSITGLPDNIKLSSIISFGGKLYATNGESAYVSSDGALWNVATDLNKNGKVEMLIAPFPKNEGNLLGISGIAGIINNGDQSTFAITNPEATAWNIGSETVGADFPLENLSATSYLTATGIQTIAVMGNNRNANDTTSIAWTSQDGLLWIPLKTSSSTAYCPKLDNPSFFYYDNAFLAFGGNFETIYTSEAGIAWYKANKKIFLPAEFKDRGNNYSTVVDKNNFIWVIWSNGGANEVWRGRINKFGFKRQNNN
MGSDKIHHHHHHAVVPGKKDFINENTPGSKVVQTPEGAWFKDDKNRQEWSITSEDGLRLKAIYLPADKKSNRTVIMAHGYMGSAETMSVFAKMYHDWGYNVLAPDARGHGKSQGDYIGFGWPDRKDYVQWIEKVLTENGQQEQITLYGVSMGAATVMMTSGEKLPDNVKAIVEDCGYSTVNQELQYQLKELFNLPSFPLVNVTSGITKLRAGYFFGEASAVKQLQKNHLPMLFIHGENDTFVPFSMLDEVYNATQGPKEKYVVPGAEHAKAYNKNPEKYKETVAAFLDKYIK
MGSDKIHHHHHHDDTLTSGTITIAVDETFRPIIEEELQVFYALTPDATVHPIYCSEVEAMKLLLADSVRLAITTRQLTRQETAYLNDKKFFPVSVKMATDGLALIVNKQNTDSLITVDQFKEILTGKVTDWKQLNPASRLGELQLVFDNPNSSTVHYVLDSICGGMPLSKDLKAQKTNPEVISYVAKNPAALGVIGVNWIGNPADSTRLSFNDVIRIMAVSRADSATVGNSFKPYQAYLALNQYPLTRNVYILLNDPKSGLPSGLTSFLTDFRGQRIILKSGLVPATAAVRIVDVKEE
MGSDKIHHHHHHDEFIQGIGNQNAQESGVWDFSMSISDMKFSQEDGAQTNPMIGMLITQIKDASLSGKIQVDAKKEKAFNLEMKLKAMGMDVPISLVGSLDNEGKEPKLYLATDMMEYIVAVADSMTDGAIDSSQLDTEKLKGKYIDLLAMNEESTKEWQDTIKEYQESEKERKQSAKEYKEFLEGLDKDTFEKKGDTITHTFTKKELQKLIKITTETSEKGKEQDPFEKVKDVSAKVSVNTKENKTNMLINVKPQQDKNVDMGLESLSSKISITQKAKKATISMPKKENILSEQEVEKIFSDSTSMTGLSTEDTTVAINQ
MGSDKIHHHHHHDKLDLSPIDYYGSGSYWKTEAQATAYIDGIHKHLRDAAWQHTITFGELRGGRFITGASSDGMGVSNGDIILQNFDETHTGVSKFGDLFGRITNLNLFIARVTDATYLSDEMKNFYLGEVYGLRAFYYFDLYRIYGGVPLRLTADVVEGVIDPNKLYMARSTPKEVMTQIKSDLNKSMEYFGNMNDFDPYKRGKKVYWSKAATECLMGEVYLWTSKVTTGDDVANPADLTIAKTHLESVLNNYNLKMLDDFSQVFNAKNKANDEIIFAIRFLEGEATNSNGTFTYNVGTGSTKNRYQANGEVFGDALDIQNTGNQTYEYNKAVYQNFDDADTRKEATFIASYNKDGKTGELSLYGTHVRKNIGYVNAQGARVYCGDYIFYRLPWVYLTLAEIANMEGDNAAVAKYINLVRKRAYGNAWDETLYAYPETADFTTNELAILHEKDKEFIQEGQRWWDLRRMTLTKGGTPLVFCKEGSLLGDAPILNKSTEAHKLLWPIEKTMLNKDPALEQTPGYK
MGSDKIHHHHHHDSDIDPVYVLSGDSMELMGGPNEVILTPDNPQALALTVYWSGDGRLALSDTLLQAPVNVAEITIQFSKDEHFTAPLNIAVDKNIHSRQFLCEELNSLLDRLGYEANEKAPLWIRMRSALAANIAPEYSNVMEVLVQSYRIELVLAQVLDKDWKNTSMTLASPAEDGIYKGFMGVNGWENWWLREANNVMWGNLGEEGKTFYASSEDSHWNFWFPNPSGCYYTTVNTVEGWWSALHVASLSVSGDVTGEMAYNKQSNQWTLPVNLATQSTLTISVSGKGSLYNRETTDIGPAIEQTVAFGGNSQNLLFGESADNISVTMPAGENLLVLDLSNPLQFTIGIGEDVPQPEVSQYLYFSGITNWEGFDDYLTLYDEAGLCYGGAHWIDSEWGYRAYTEQAWEPAYNAADGSTDLSGTLILAESKDNIPAPAQGLYVMDFNMKSLTYELTQVQTVTFTGLNDNWSESPMTQSAENPEIFTAEFIKEKKSPWGVKVLINNNWNLFFGGGSGILHLKHSESSAGFDGDDELEIGKTYVLTVDLGHQTYSYSLK
MGSDKIHHHHHHEDFLQKDPPSSPSQSVFWQKKSDFESALAGTYSVMYSGVFSQIMPCLDGLTDNAIVQHSEGTYGWAKTIAQGDLTPNQGGFVTDIYGNCYKGIARVHILMEQLDQYTGSDISADEKKFMLAQCKALRGYFYSWLYQCYKEVPVVTQSLDLNTMYQPKATRAEVLNRVMTDYDEAISELPDKLYSDSQTSGRFTVSAVKALKARILLFDAYDSNGKAISSKMEEVLTLLQSIKGYSLAARVRDNFISEKQLASPEIMFSVRFLRPNLTHSMDLYYGAWAVLDPTRNMVDAFECTDGKPWGESPLTVRPDESILYGNDDALKKAERAKMFMNRDRRLYESVNHSMMANFVDDGFKDEEVQVNESNNKGPTGFSALKYVQPTDVTPGYSTVSDADIVVLRYAHVLLMIAEAENEAHGATTTALNAINEVRTRSGQPAIEAGISQDDLRERIRNEWRIETCFEGLRYFQLKRWKLMDKRVNGVEDPAYPGYIKVYKPAFEFFPIPQSEIDKAGGVLKQDPAYE
MGSDKIHHHHHHEEPVGEFLPGQVESEENIEGIVTGAYAVLDGYYASDAINSGCSNWQFGDVVSDDAYKGGGGTGDQNQIHLMEIFNANPTGIDFEARWAALYEGIKRCNQAIRLLNGSEVKNKEQRLAEMRFLRGHYYFNLKIIYNQIPWIDETLVDPNEYNKKSNIEFSSDQLWEKILEEFSAAYKVLPESQADYGRPTKMAARAYMAKVYLYQSKWKECLEACDEVIQSGKYELFPDFRNVFLPENDNCSEIIFAIQLSINDGSPNNENGSYGDRLLPPGGPYPVYGFLRPTQNLVNAYKTDVKGLPYNDGKDVSENDYVDVRLDHTLARPNIPFMDVQLYDWTPREASVYGPYSPKKRLVSLNSTYYSPIWPYVNALNFYVIRYADLLLWRAEAAIETGDLETGRKYINMIRERAKNTQHVKTMDQSQDAANYKVGVYDEPFKSKNEAVQALRMERRLEMAHEGIRFFDLVRWGVADEVINAYIAKEKVFRSHLQNAHFVKGKHEYFPIPQSMIDICGTEVMKQNPGY
MGSDKIHHHHHHEEQKVCHMDDECVEVGQWQLGLALGYGERSNPVRDYDDIPIYLAPTLAYYGDRWFFDNGNLGYTLADEELFSVNLTTSFSSDSAYFYRWDPSNIFISGTSQLSSTPSAFTSRFQAFGAEPEPVFNELEDRKFTLLGGAEAFIYTPMGIINLALAHDLFDVHSGMEAKVKWLYNLSWTDWKFEFAAVANWKSEEIINYYYGVRPSENTYWSERYRAGSGTNLGLELTTQYIMSEHWELLFLVRYTDLADEITASPLVTESYTNTYFIGTAYRF
MGSDKIHHHHHHEGNATTTSYFLNDQQAIDAIDGLYERFHQEGCYGRELFWEQGAACDIVWGRTRGYNSLATLAYTGDESPLRDVFSRMYSTMSRANWIIQELVKKEKGTTLTAVEKRSLGEAYFSRGWAHYLIAYRYGTDKQGVPFVRYEDFPDDYDNSIPPQQATVMDNYKLIIEDMDKAIAYLPIFESYDADNRGRAHQAAAVAFKAKTYAYWATWDATQWNNVIEMVNQLENNYNRDLAPTFAELFSSDLKDYWNAEYLWTIPSIGGALPGGTEFPGIILENKGWGKYNGWGQMKPSYDIYEEMAKDGKGNDRLVRSILEYNQEFPFFGETRKFWSTSDLEAGFMINKYMDAFKYSDPVGEGAVSANGDWPTVRVNFPIIRFAEMLLFRAEAYLMTGQADKATADINRIRLRSNLTPLTGTATMKDLYHERRCELAFEFTDHLFDLKRWNRSSNADIKTLADKELNAHPRIRRYEDRANPESAFTIIGYEDYTNKNAYQAHMMVFPYPSEEITKSNGQLKQNEGY
MGSDKIHHHHHHFDGFGAVSGGGATSKLLFTYFSEKSDRKQVLESLFNKDNGLQLLKVEMGGDDQSTEGTESSHESEKGKISKNNYEFQLISEVREINPTIPICVLPWAFPGWIGNTPYDNVTETAEYVVNWLKIGRDTWNFDTFCVGVWNERNFSESYVKELRKILNLNGFNETLIVAGEGFRMDDSYSRLLDKRFINEYDIIG
